The source of these data is US20160230173A1.

The target in data set [1] is Doubly mutated GR (double mutagenized GR, both CASP1 cleavage sites LLID and IKQE replaced by alanines), expressed from pLX304 lentivirus (human) (UniProt P04150). Description: cell-based or functional assay.
The target of data set [2] is Endogenous glucocorticoid receptor (90-kDa GR) of NALM-6 human leukemia cells (human) (UniProt P04150). Nature of the data set: cell-based or functional assay.
Data set [3] deals with T1, Glucocorticoid receptor (NR3C1) with the LLID motif mutated to AAAA by site-directed mutagenesis of Myc-DDK tagged NR3C1.
T1 chain: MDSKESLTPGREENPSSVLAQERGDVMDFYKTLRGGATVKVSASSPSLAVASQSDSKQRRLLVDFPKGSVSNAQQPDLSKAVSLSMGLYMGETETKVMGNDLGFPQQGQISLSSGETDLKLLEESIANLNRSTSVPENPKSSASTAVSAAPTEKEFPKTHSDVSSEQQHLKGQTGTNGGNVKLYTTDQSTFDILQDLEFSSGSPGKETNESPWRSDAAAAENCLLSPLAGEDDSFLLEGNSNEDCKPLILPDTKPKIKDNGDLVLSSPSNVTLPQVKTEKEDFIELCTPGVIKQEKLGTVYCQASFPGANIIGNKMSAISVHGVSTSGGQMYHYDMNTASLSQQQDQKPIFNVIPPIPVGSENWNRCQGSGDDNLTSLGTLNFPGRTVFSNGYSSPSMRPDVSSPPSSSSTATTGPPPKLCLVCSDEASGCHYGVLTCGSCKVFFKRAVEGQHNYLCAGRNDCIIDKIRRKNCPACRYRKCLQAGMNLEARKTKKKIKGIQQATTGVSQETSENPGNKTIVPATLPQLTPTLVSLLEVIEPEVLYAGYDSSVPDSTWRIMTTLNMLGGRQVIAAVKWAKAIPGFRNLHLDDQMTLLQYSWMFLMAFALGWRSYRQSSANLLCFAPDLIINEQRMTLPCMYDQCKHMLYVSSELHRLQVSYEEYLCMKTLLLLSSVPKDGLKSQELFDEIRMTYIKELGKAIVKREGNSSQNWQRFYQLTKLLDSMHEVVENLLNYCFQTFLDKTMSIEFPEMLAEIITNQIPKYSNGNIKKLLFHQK

Regarding “Full-length CASP1 (Origene catalog # RC218364; GenBank Accession No. NM_033292) overexpressed in Nalm6 leukemia cells by lentivirus (from UniProt P29466 1-404) (enzyme)”, the fold decrease in prednisolone LC50 (MTT assay) in CASP1-overexpressing NALM-6 cells expressing GR without CASP1 cleavage sites in data set [1] is 9.4 fold. In data set [2], this molecule registered a GR protein level in CASP1-overexpressing Nalm6 cells 24 hours after activation of CASP1 (western blot) of 35 % reduction and a level of 90-kDa GR after activation of CASP1 (LPS/ATP) in shNT CASP1-overexpressing NALM-6 cells (western blot, normalized for HSP90) of 2 fold lower.

B1: Recombinant human CASP1 (Enzo Life Sciences CASP1 assay kit for drug discovery, catalog number BML-AK701-0001) (protein)
chain: NPAMPTSSGSEGNVKLCSLEEAQRIWKQKSAEIYPIMDKSSRTRLALIICNEEFDSIPRRTGAEVDITGMTMLLQNLGYSVDVKKNLTASDMTTELEAFAHRPEHKTSDSTFLVFMSHGIREGICGKKHSEQVPDILQLNAIFNMLNTKNCPSLKDKPKVIIIQACRGDSPGVVWFKDSVGVSGNLSLPTTEEFEDDAIKKAHIEKDFIAFCSSTPDNVSWRHPTMGSVFIGRLIEHMQEYACSCDVEEIFRKVRFSFEQPDGRAQMPTTERVTLTRCFYLFPGH
For B1, the “cleavage of mutated GR in CASP1 enzymatic assay (western blot)” value in data set [3] was “Site-directed mutagenesis of the LLID motif (SEQ ID NO: 20) ablated cleavage of the glucocorticoid receptor at this location (FIG. 3B) and revealed a secondary CASP1 cleavage site in the GR”.
